Results from US20240166765A1 (ICONIC THERAPEUTICS, published 2024).

B1: 1F (antibody, human IgG1, V domains shown)
VH: EVQLLESGGGLVQPGGSLRLSCAASGFTFSDYAMGWVRQAPGKGLEWVSTISGSGGLTYYADSVKGRFTISRDNSKNTLYLQMNSLRAEDTAVYYCAKAPYGYYMDVWGKGTTVTVSS
VL: not shown
B2: 39A (antibody, human IgG1, V domains shown)
VH: QVQLVQSGAEVKKPGSSVKVSCKASGGTFSSNAIGWVRQAPGQGLEWMGSIIPIIGFANYAQKFQGRVTITADESTSTAYMELSSLRSEDTAVYYCARDSGYYYGASSFGMDVWGQGTTVTVSS
VL: EIVMTQSPATLSVSPGERATLSCRASQSVSSNLAWYQQKPGQAPRLLIYGASTRATGIPARFSGSGSGTEFTLTISSLQSEDFAVYYCEQYNNLPLTFGGGTKVEIK
B3: 5G9 (humanized TF8-5G9, CNTO 860) (antibody, V domains shown)
VH: QVQLVESGGGVVQPGRSLRLSCKASGFNIKDYYMHWVRQAPGKGLEWIGLIDPENGNTIYDPKFQGRFTISADNSKNTLFLQMDSLRPEDTAVYYCARDNSYYFDYWGQGTPVTVSS
VL: DIQMTQSPSSLSASVGDRVTITCKASQDIRKYLNWYQQKPGKAPKLLIYYATSLADGVPSRFSGSGSGTDYTFTISSLQPEDIATYYCLQHGESPYTFGQGTKLEIT
B4: 25A (antibody, human IgG1, V domains shown)
VH: QVQLVQSGAEVKKPGASVKVSCKASGYTFDVYGISWVRQAPGQGLEWMGWIAPYNGNTNYAQKLQGRVTMTTDTSTSTAYMELRSLRSDDTAVYYCARDAGTYSPFGYGMDVWGQGTTVTVSS
VL: DIQMTQSPSTLSASVGDRVTITCRASQSISSWLAWYQQKPGKAPKLLIYKASSLESGVPSRFSGSGSGTEFTLTISSLQPDDFATYYCQQFQSLPPFTFGGGTKVEIK
B5: TF-011 (antibody, V domains shown)
VH: EVQLLESGGGLVQPGGSLRLSCAASGFTFSNYAMSWVRQAPGKGLEWVSSISGSGDYTYYTDSVKGRFTISRDNSKNTLYLQMNSLRAEDTAVYYCARSPWGYYLDSWGQGTLVTVSS
VL: DIQMTQSPPSLSASAGDRVTITCRASQGISSRLAWYQQKPEKAPKSLIYAASSLQSGVPSRFSGSGSGTDFTLTISSLQPEDFATYYCQQYNSYPYTFGQGTKLEIK
B6: 1F (antibody, human IgG1, V domains shown)
VH: EVQLLESGGGLVQPGGSLRLSCAASGFTFSDYAMGWVRQAPGKGLEWVSTISGSGGLTYYADSVKGRFTISRDNSKNTLYLQMNSLRAEDTAVYYCAKAPYGYYMDVWGKGTTVTVSS
VL: not shown
B7: 29E (antibody, human IgG1, V domains shown)
VH: QVQLVESGGGVVQPGRSLRLSCAASGFTFRSYGMHWVRQAPGKGLEWVAVITYDGINKYYADSVEGRFTISRDNSKNTLYLQMNSLRAEDTAVYYCARDGVYYGVYDYWGQGTLVTVSS
VL: not shown

Each binder was assayed against Relipidated TF (UniProt P13726 33-295, limits assumed) (assay: cell-based or functional assay).
In the case of B1, the “% ETP, TGA 10 min pre-incubation, 10 nM Ab” value is reported as 41%, the “% Peak IIa, TGA […] min pre-incubation, 10 nM Ab” value is reported as 16% and the “% Peak IIa, TGA […] min pre-incubation, 50 nM Ab” value is reported as 8%. For the same binder, the “% Peak IIa, TGA […] min pre-incubation, 100 nM Ab” value was 7%, the “% ttPeak, TGA 10 min pre-incubation, 10 nM Ab” value was 220% and the “% ttPeak, TGA 10 min pre-incubation, 50 nM Ab” value was 433%. For the same binder, the “% ttPeak, TGA 10 min pre-incubation, 100 nM Ab” value was 483%, the “ETP, TGA 10 min pre-incubation, 10 nM Ab” value was 742 nM·min and the “Lag Time, TGA 10 min pre-incubation, 10 nM Ab” value was 13.8 min. For the same binder, the “Lag Time, TGA 10 min pre-incubation, 50 nM Ab” value was 26.5 min, the “Lag Time, TGA 10 min pre-incubation, 100 nM Ab” value was 29.5 min and the “Peak IIa, TGA […] min pre-incubation, 10 nM Ab” value was 44 nM. The “Peak IIa, TGA […] min pre-incubation, 50 nM Ab” value was 23 nM, the “Peak IIa, TGA […] min pre-incubation, 100 nM Ab” value was 20 nM and the “ttPeak, TGA 10 min pre-incubation, 10 nM Ab” value was 22.4 min. The “ttPeak, TGA 10 min pre-incubation, 50 nM Ab” value was 37.3 min and the “ttPeak, TGA 10 min pre-incubation, 100 nM Ab” value was 40.8 min.

These binders were tested against Relipidated TF (Tissue Factor) (UniProt P13726 33-295, limits assumed) (assay: cell-based or functional assay).
With B2 the “% ETP, Ab 10 nM” value was 84%, the “% Peak IIa, Ab 10 nM” value was 37% and the “% Peak IIa, Ab 50 nM” value was 11%. The “% Peak IIa, Ab 100 nM” value was 9%, the “% ttPeak, Ab 10 nM” value was 135% and the “% ttPeak, Ab 50 nM” value was 397%. The “% ttPeak, Ab 100 nM” value was 465%, the “ETP [nM · min], Ab 10 nM” value was 1690 nM·min and the “Lag Time [min], Ab 10 nM” value was 10.8 min. For the same binder, the “Lag Time [min], Ab 50 nM” value was 29.8 min, the “Lag Time [min], Ab 100 nM” value was 34.7 min and the “Peak IIa [nM], Ab 10 nM” value was 122 nM. For the same binder, the “Peak IIa [nM], Ab 50 nM” value was 36 nM, the “Peak IIa [nM], Ab 100 nM” value was 29 nM and the “ttPeak [min], Ab 10 nM” value was 18.6 min. The “ttPeak [min], Ab 50 nM” value was 39.3 min and the “ttPeak [min], Ab 100 nM” value was 44.6 min. For B3, the “% ETP, Ab 10 nM” value was 58%, the “% Peak IIa, Ab 10 nM” value was 24% and the “% Peak IIa, Ab 50 nM” value was 8%. For the same binder, the “% Peak IIa, Ab 100 nM” value was 8%, the “% ttPeak, Ab 10 nM” value was 135% and the “% ttPeak, Ab 50 nM” value was 338%. For the same binder, the “% ttPeak, Ab 100 nM” value was 401%, the “ETP [nM · min], Ab 10 nM” value was 1180 nM·min and the “Lag Time [min], Ab 10 nM” value was 10.4 min. For the same binder, the “Lag Time [min], Ab 50 nM” value was 25.1 min, the “Lag Time [min], Ab 100 nM” value was 29.9 min and the “Peak IIa [nM], Ab 10 nM” value was 79 nM. For the same binder, the “Peak IIa [nM], Ab 50 nM” value was 28 nM, the “Peak IIa [nM], Ab 100 nM” value was 27 nM and the “ttPeak [min], Ab 10 nM” value was 18.6 min. The “ttPeak [min], Ab 50 nM” value was 34.6 min and the “ttPeak [min], Ab 100 nM” value was 39.6 min. For B4, the “% Peak IIa, Ab 10 nM” value was 97%, the “% Peak IIa, Ab 50 nM” value was 95% and the “% Peak IIa, Ab 100 nM” value was 95%. The “% ttPeak, Ab 10 nM” value was 4%, the “% ttPeak, Ab 50 nM” value was 9% and the “% ttPeak, Ab 100 nM” value was 9%. The “ETP [nM · min], Ab 10 nM” value was 2110 nM·min, the “ETP [nM · min], Ab 50 nM” value was 2120 nM·min and the “ETP [nM · min], Ab 100 nM” value was 2130 nM·min. For the same binder, the “Lag Time [min], Ab 10 nM” value was 5 min, the “Lag Time [min], Ab 50 nM” value was 5.2 min and the “Lag Time [min], Ab 100 nM” value was 5.2 min. The “Peak IIa [nM], Ab 10 nM” value was 322 nM, the “Peak IIa [nM], Ab 50 nM” value was 317 nM and the “Peak IIa [nM], Ab 100 nM” value was 317 nM. The “ttPeak [min], Ab 10 nM” value was 8.2 min, the “ttPeak [min], Ab 50 nM” value was 8.6 min and the “ttPeak [min], Ab 100 nM” value was 8.6 min. For B5, the “% ETP, Ab 10 nM” value was 85%, the “% Peak IIa, Ab 10 nM” value was 47% and the “% Peak IIa, Ab 50 nM” value was 12%. For the same binder, the “% ttPeak, Ab 10 nM” value was 86%, the “% ttPeak, Ab 50 nM” value was 284% and the “% ttPeak, Ab 100 nM” value was 353%. The “ETP [nM · min], Ab 10 nM” value was 1710 nM·min, the “Lag Time [min], Ab 10 nM” value was 8 min and the “Lag Time [min], Ab 50 nM” value was 21.3 min. For the same binder, the “Peak IIa [nM], Ab 10 nM” value was 156 nM, the “Peak IIa [nM], Ab 50 nM” value was 39 nM and the “Peak IIa [nM], Ab 100 nM” value was 30 nM. The “ttPeak [min], Ab 10 nM” value was 14.7 min, the “ttPeak [min], Ab 50 nM” value was 30.3 min and the “ttPeak [min], Ab 100 nM” value was 35.8 min. For B6, the “% ETP, Ab 10 nM” value was 86%, the “% Peak IIa, Ab 10 nM” value was 47% and the “% Peak IIa, Ab 50 nM” value was 9%. The “% Peak IIa, Ab 100 nM” value was 8%, the “% ttPeak, Ab 10 nM” value was 89% and the “% ttPeak, Ab 50 nM” value was 347%. For the same binder, the “% ttPeak, Ab 100 nM” value was 419%, the “ETP [nM · min], Ab 10 nM” value was 1740 nM·min and the “Lag Time [min], Ab 10 nM” value was 8.2 min. The “Lag Time [min], Ab 50 nM” value was 25.6 min, the “Lag Time [min], Ab 100 nM” value was 31 min and the “Peak IIa [nM], Ab 10 nM” value was 155 nM. For the same binder, the “Peak IIa [nM], Ab 50 nM” value was 31 nM, the “Peak IIa [nM], Ab 100 nM” value was 25 nM and the “ttPeak [min], Ab 10 nM” value was 14.9 min. For the same binder, the “ttPeak [min], Ab 50 nM” value was 35.3 min and the “ttPeak [min], Ab 100 nM” value was 41 min. With B7 the “% ETP, Ab 10 nM” value was 95%, the “% ETP, Ab 50 nM” value was 67% and the “% ETP, Ab 100 nM” value was 62%. The “% Peak IIa, Ab 10 nM” value was 71%, the “% Peak IIa, Ab 50 nM” value was 29% and the “% Peak IIa, Ab 100 nM” value was 24%. The “% ttPeak, Ab 10 nM” value was 48%, the “% ttPeak, Ab 50 nM” value was 186% and the “% ttPeak, Ab 100 nM” value was 232%. The “ETP [nM · min], Ab 10 nM” value was 1930 nM·min, the “ETP [nM · min], Ab 50 nM” value was 1360 nM·min and the “ETP [nM · min], Ab 100 nM” value was 1260 nM·min. For the same binder, the “Lag Time [min], Ab 10 nM” value was 7 min, the “Lag Time [min], Ab 50 nM” value was 14.1 min and the “Lag Time [min], Ab 100 nM” value was 17.1 min. For the same binder, the “Peak IIa [nM], Ab 10 nM” value was 235 nM, the “Peak IIa [nM], Ab 50 nM” value was 95 nM and the “Peak IIa [nM], Ab 100 nM” value was 81 nM. The “ttPeak [min], Ab 10 nM” value was 11.7 min, the “ttPeak [min], Ab 50 nM” value was 22.6 min and the “ttPeak [min], Ab 100 nM” value was 26.2 min.
